Results taken from patent publication US20210253725A1 (BIONTECH, published 2021).
Changes are numbered by the printed parent chain.

T1: CD27 expressed on the cell surface of HT1080_CD27 cells (human, UniProt P26842 20-260)
T1 sequence (looked up): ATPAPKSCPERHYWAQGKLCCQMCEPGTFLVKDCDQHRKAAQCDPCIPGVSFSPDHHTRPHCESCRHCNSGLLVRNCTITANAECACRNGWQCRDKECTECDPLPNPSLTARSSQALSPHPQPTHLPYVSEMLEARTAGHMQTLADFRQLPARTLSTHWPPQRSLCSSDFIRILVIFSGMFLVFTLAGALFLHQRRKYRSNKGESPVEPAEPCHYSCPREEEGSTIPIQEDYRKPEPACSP

B1: P018.S.10.A.E01 (antibody, V domains shown)
VH: QEQLVESGGGLVQPEGSLTLTCTATGIDFSTNYRSCWVRQAPGKGLEWIACIDTDDSDSTYYASWAKGRFTISKTSSTTVTLQMTSLTAADTATYFCTRAYTTSDYAWSFYLWGPGTLVTVSS
VL: DLVMTQTPASVEAAVGGTVTIKCQTSQSISKFLNWYQQTPGQPPKLLIYRASTLESGVPSRFEGSGSGTEFTLTISDLESADAATYYCQCTYGGTSGSVWAFGGGTEVVVK
B2: P018.S.10.A.H01 (antibody, V domains shown)
VH: QEQLEESGGDLVKPGASLTLTCTASGFSFSSDYDMCWVSQAPGKGLEWIACIIGGSSDSTWYASWAKGRFTISKTSSTTVTLQVTGLTAADTATYFCARNVGFSYYDLWGPGTLVTVSS
VL: AQVLTQTPSPVSAAVGGTVTINCQASQSLYNNKNLAWYQQKPGQPPKLLIYYASTLASGVSSRFKGSGSGTQFTLTISGVQSDDAATYYCQGEFSCSSGDCFAFGGGTEVVVK
B3: P018.S.08.A.G02 (antibody, V domains shown)
VH: QSVEESGGRLVTPGTPLTLTCTVSGFSLSTYAMSWVRQAPGKGLEWIGMNTRSGIIYYASWAKGRFTISKTSTTVHLKITSPTTEDTATYFCARDLYADVSGYYLGLWGPGTLVTVSS
VL: B2 VL with P10S, G79D, V80L, Q81E, S95I, G99A, F102V, A103V, E109A
B4: P018.S.09.A.C03 (antibody, V domains shown)
VH: QSVEESGGRLVTPGTPLTLTCTVSGFSLSSYGMIWVRQAPGKGLEWIGWISSNDNKYYARWAKGRFTISKTSTTVDLKMTSLTTEDTATYFCVRNGVYNTGNYFDLWGQGTLVTVSS
VL: B2 VL with P10S, L48F, Y52T, T55S, G79D, S95D, S97D, G99D
B5: P018.S.10.A.C05 (antibody, V domains shown)
VH: QSVEETGGRLVTPGTPLTLTCAASGVSLSGYYAMSWVRQAPGKGLEWIGYLDATGSTYYASWVKGRFIISRPSTTVDLQITSPTIEDTATYFCARGSYDGVGYNWGLWGQGTLVTVSS
VL: DIVMTQTPASVSEPVGGTVTIKCQASESIYNGLAWYQQKPGQPPKRLIYGASTLTSGVPSRFKGSGSGTEFTLTISDLESDDAATYYCQSNYGSGSRSNYIFGGGTEVVVK
B6: P018.S.01.A.F05 (antibody, V domains shown)
VH: QEQLEESGGDLVKPEGSLTLTCTASGFSFSSSYWICWVRQAPGKGLEWIGCIITGRGNTYYANWAKGRFTISKTSSTTVTLQMTSLTAADTAIYSCARGPGGADPVNLWGPGTLVTVSS
VL: DVVMTQTPASVSEPVGGTVTIKCQASQSIYSNLAWYQQKPGQPPKLLIYRASTLTSGVPSRFKGSGSGTQFTLTISDLESADAATYYCQCTYDGSSYVPNAFGGGTEVVVK
B7: P018.S.02.A.G03 (antibody, V domains shown)
VH: QSVEESGGRLVTPGTPLTLTCTVSGFSLSSYVMSWVRQAPGKGLEWIGYIDYGGTAYYASWAKGRFTISKTSTTVELKITSPTIEDTATYFCARGGYGGYILVTGLWGPGTLVTVSS
VL: DIVMTQTPASVSEPVGGTVTIKCQASQTIISYLSWYQQKPGQPPKLLIYGASTLASGVPSRFKGSGSVTEYTLTISDLESADAATYYCQTYYGGGPFGNGFGGGTEVVVK
B8: P018.S.07.A.C04 (antibody, V domains shown)
VH: QEQLVESGGGLVQPEGSLTLTCTASGFSFSSRFWICWVRQAPGKGLEWIACIYGGSTSATYDASWAKGRFTISKTSSTTVTLQMTSLTAADTATYFCTRLPTYDAYVFNLWGPGTLVTVSS
VL: AIVMTQTPSSKSVPVGATATINCQASESVFSNNYLSWYQQKPGRSPKLLIYEASKLASGVPSRFSGSGSGTQFTLTISDVVSDDAATYYCGGYKSNNVDGYAFGGGTEVVVK
B9: P018.S.09.A.E05 (antibody, V domains shown)
VH: QSLEESGGRLVTPGTPLTLTCTVSGIDLSRYDMSWVRQAPGKGLEWIGFIGASGSTYYASWVKGRFTISKTSTTVDLKITSPTTEDTATYFCAREETDSRGYYYSLWGPGTPVTVSS
VL: ALVMTQTPASVEAAVGGTVTINCQASQSISDLLGWYQQKPGQPPKLLIYDASDLASGVPSRFSGSGSGTEFTLTISGVQSDDAATYYCQQGYSINNVDNAFGGGTEVVVK
B10: P018.S.04.A.A05 (antibody, V domains shown)
VH: QSLEESGGRLVTPGTPLTLTCTASGFTISSYEMGWVRQAPGEGLEYIGWIASGGSTFYASWAKGRFTISRTSTTVDLTITDLRPSDTGTYFCARGYVEFKLWGPGTLVTVSS
VL: DIVMTQTPASVSESVGGTVTIKCQASQSIGSYLSWYQQKPGQPPKVLIYRASTLESGVPSRFEGSGSGTQFTLTISDLESADAATYYCQGYHSTSGYVAFGGGTELVVK
B11: P018.S.09.A.H03 (antibody, V domains shown)
VH: QSLEESGGRLVTPDESLTLTCTVSGFSLSSNAMIWVRQAPGKGLEWIGIIDTGGSAYYASWAKGRFTISKTSTTVDLKITSPTTEDTATYFCARDRYTDSSGYNLWGQGTLVTVSS
VL: DIVMTQTPASVEAAVGGTVTIKCQASQSIGASLAWYKQKPGQPPKLLIYSASWLASGVPSRFKGSGSGTEFTLTISDLASADAATYYCQSYYYRSSSGYGYAFGGGTEVVVK
B12: P018.S.09.A.H06 (antibody, V domains shown)
VH: QSVEESGGRLVKPDETLTLTCTVSGIDLTSYAMGWVRQAPGEGLEWIGAIGSGGGIYYASWARGRFTISKTSSTTVDLKIPSPTTEDTATYFCARVPQWAYLDLWGQGTLVTVSS
VL: AQVLTQTPASVSAAVGGTVTISCQSSESVYKNNYLSWYQQKPGQPPKLLIYDASTLASGVPSRFSGSGSGTQFTLTISGVQSEDAATYYCQGYYGGGIFTFGGGTEVVVK
B13: P018.S.04.A.F04 (antibody, V domains shown)
VH: QSVEESGGRLVTPGTPLTLTCTVSGFSLSNYAMSWVRQAPGKGLEWIGIIYASGTTYYARWAKGRFTISRTSTTVDLKISSPTTEDTATYFCAREYDSYDYAYGSSIYAFDPWGPGTLVTVSS
VL: AYDMTQTPSSVSAAVGGTVTIKCQASESIYSNLAWYQQKPGQRPKLLIYRASTLASGVSSRFKGSGSGTQFTLSISGVESADAATYYCQQGYSSSNVDNVFGGGTEVVVK
B14: P018.S.03.A.A02 (antibody, V domains shown)
VH: QSVEESGGRLVTPGTPLTLTCTVSGFSLSSYDMTWVRQAPGEGLEWIGYINTDTTTYYASWAKGRFTISRTSTTVDLEITSPTTEDTATYFCARGNDPIYIDLWGQGTLVTVSS
VL: AAVLTQTPSPVSAAVGGTVSISCQSSKSVINNNWLGWYQQKPGQPPKLLISYASTLASGVPSRFSGSGSGTQFTLTISDVQSDDAATYYCAGAYSPDSENAFGGGTEVVLK
B15: P018.S.01.A.H02 (antibody, V domains shown)
VH: QSVEESGGRLVTPGTPLTLTCTASGFSLSSYHMQWVRQAPGKGLEWIGIIYAGSGNTWYASWAKGRFTISKTSTTVDLKITSPTTEDTAAYFCARQPGGDASDTQLDLWGQGTLVTVSS
VL: AAVLTQTASPVSAAVGGTVTINCQSSQSVFDHNQLSWFQHKPGQSPKLLIYRASTLASGVPSRFKGSGSGTQFTLTISDVQSDDAATYYCLGGYSSSSDTVFGGGTEVVVK
B16: P018.S.10.A.A04 (antibody, V domains shown)
VH: QSVEESGGRLVTPGTPLTLTCTVSGIDLSSNVMTWVRQAPGKGLEWIGYIYASATTYYATWAKGRFTISKTSTTVDLKMTSPTTEDTATYFCARERLASRGDYSDLWGQGTLVTVSS
VL: AYDMTQTPASVEAAVGGTVTIKCQASESIGDLLAWYQQKPGQPPKLLIYDASDLASGVPSRFKGSGSGTEFTLTISGVESADAATYYCQQGYTTTSNVDNIFGGGTEVVVK
B17: P018.S.01.A.B04 (antibody, V domains shown)
VH: QEQLEESGGRLVTPGGTLTLTCTASGFSLSSYDMSWVRQAPGKGLEWIGYIWSDGNTDYASWAAGRFTASRASTTVDLKMTSLTTEDTATYFCARGYTGFFLWGPGTLVTVSS
VL: DVVMTQTPSSVSAAVGGTVTIKCQASQSIGSSYLSWYQQKPGQPPKLLIYKTSTLASGVPSRFKGSGSGTEFTLTISDLESDDAATYYCQCTYYGGSWRVAFGGGTEVVVK
B18: P018.S.01.A.D04 (antibody, V domains shown)
VH: B17 VH with S31N
VL: B17 VL with A13T, G17D
B19: P018.S.06.A.A02 (antibody, V domains shown)
VH: QEQLVESGGGLVQPEGSLTLTCTSSGFSLNSNYYISWVRQAPGKGLEWIACIDAGSGSTWYASWVKGRFTISKTSSTTVTLQMTSLTAADTATYFCARDDIGTSYEYYFGLWGPGTLVTVSS
VL: DVVLTQTPASVSEPVGGTVTIKCQASQTISSYLAWYQQKSGQPPKLLIYSASTLASGVSSRFKGSGSGTEYTLTISDLESADAATYYCQTYYGSDSYVFGGGTEVVVK
B20: P018.S.07.A.G02 (antibody, V domains shown)
VH: QSVEESGGRLVTPGTPLTLTCTVSGFSLSSYDMSWVRQAPGKGLEWIGWITTDGGTDYASWAKGRFTVSKASTTVDLKITSPTTEDTATYFCARGYASFNLWGQGTLVTVSS
VL: AQVLTQTPSSVSAAVGGTVTINCQSSQSVLSNSYLAWYQQKPGQPPKLLIYAASSLASGVPSRFKGSGSGTQFTLTISDLESDDAATYYCQGTDYSGGWYVAFGGGTEVVVK
B21: P018.S.09.A.D05 (antibody, V domains shown)
VH: QSLEESGGRLVTPGGSLTLTCTVSGIDLSSYAMDWVRQAPGKGLEWIGVIGAGGSTYYASWANGRFTISKTSTTVDLKISSPTTEDTATYFCARDIGGDYSSRYYFSLWGPGTLVTVSS
VL: DIVMTQTPASVEAAVGGTVTIKCQASQSTSTALAWYQQKPGQRPKLLIYDSSKLASGVPSRFSGSGSGTEFTLTISGVQSDDAASYYCQQGYNINNVAFGGGTEVVVK

Target: T1, CD27 expressed on the cell surface of …
Assay: cell-based or functional assay

EC 50 (IL-8 release, cross-linked)	Binder
0.722 µg/mL	B1
0.431 µg/mL	B2
1.94 µg/mL	B3
1.02 µg/mL	B4
0.34 µg/mL	B5
1.32 µg/mL	B6
0.526 µg/mL	B7
0.801 µg/mL	B8
0.502 µg/mL	B9
0.408 µg/mL	B10
0.387 µg/mL	B11
0.329 µg/mL	B12
1.44 µg/mL	B13
0.835 µg/mL	B14
1.11 µg/mL	B15
0.335 µg/mL	B16
0.856 µg/mL	B17
1.3 µg/mL	B18
0.575 µg/mL	B19
0.43 µg/mL	B20
0.561 µg/mL	B21
